What was measured:
human CD38 on cells [1] = target: T1, human CD38 on cells (human, UniProt P28907 1-300); assay: cell-based or functional assay
human CD38 on cells [2] = target: T1, human CD38 on cells; assay: apparent KD, FACS titration on Ramos cells, non-linear regression
human CD38 on cells [3] = target: T1, human CD38 on cells; assay: FACS binding titration on Ramos cells
human CD38 on cells [4] = target: T1, human CD38 on cells; assay: FACS binding on Ramos cells

ADCC EC50, Ramos target cells, human NK effector cells, LDH release (human CD38 on cells [1]) [ng/mL] | CDC EC50, Raji-IMG cells, human complement 5% (human CD38 on cells [1]) [ng/mL] | apoptosis, Annexin V-positive Daudi cells after 24 h with 10 nM antibody (human CD38 on cells [1]) [%] | apoptosis, Annexin V-positive MOLP-8 cells (human CD38 on cells [1]) [%] | apoptosis, Annexin V-positive Ramos cells after subtraction of the non-treated control (human CD38 on cells [1]) [%] | Kd (human CD38 on cells [2]) [pM] | Binder | CDC, specific viability of Daudi cells at 1.25 µg/mL or higher with complement (human CD38 on cells [1]) [%] | further results
– | – | > 30 | ~50 | ≥ 7 | 3030 | 38SB39 murine anti-CD38 monoclonal antibody (antibody, V domains shown, Murine hybridoma antibody; also called hybridoma PTA-7671) VH: NVQLVESGGGLVQPGGSRKLSCAASGFTFSNFGMHWVRQAPEKGLEWVAYIRSGSGTIYYSDTVKGRFTISRDNPKNTLFLQMTSLRSEDTAMYYCARSYYDFGAWFAYWGQGTLVTVSA VL: DIVMTQSQKFMSTSVGDRVSVTCKASQNVGTNVAWYQHKPGQSPKIMIYSASSRYSGVPDRFTGSGSGTLFTLTINNVQSEDLAEYFCQQYNSYPLTFGSGTKLEIKR | – | –
– | – | > 30 | ~50 | ≥ 7 | 100 | 38SB18 murine anti-CD38 monoclonal antibody (antibody, V domains shown, Murine hybridoma antibody; also called hybridoma PTA-7669) VH: QIQLVQSGPELKKPGETVKISCKASGYTFTNSGMNWVKQAPGKGLKWMGWINTYTGEPTYADDFKGRFAFSLETSASSAYLQISNLKNEDTATYFCARRGFVYWGQGTLVTVSA VL: DIVLTQSPASLAVSLGQRATISCRASESVAIYGNSFLKWFQQKPGQPPKLLIYRASNLESGIPARFSGSGSGTDFTLTINPVEADDVATYYCQQINEDPYTFGGGTKLEIKR | – | –
1.8 | 28 | – | – | – | – | ch38SB19 chimeric anti-CD38 antibody (antibody, V domains shown, also called chimeric 38SB19) VH: QVQLQQSGAELARPGTSVKLSCKASGYTFTDYWMQWVKQRPGQGLEWIGTIYPGDGDTGYAQKFKGKATLTADKSSKTVYMHLSSLASEDSAVYYCARGDYYGSNSLDYWGQGTSVTVSS VL: DIVMAQSHKFMSTSVGDRVSITCKASQDVSTVVAWYQQKPGQSPKRLIYSASYRYIGVPDRFTGSGSGTDFTFTISSVQAEDLAVYYCQQHYSPPYTFGGGTKLEIKR | – | ADCC EC50, LP-1 multiple myeloma cells (human CD38 on cells [1]): 0.34 ng/mL; CDC EC50, LP-1 multiple myeloma cells (human CD38 on cells [1]): 30 ng/mL; Kd (human CD38 on cells [3]): 180 pM
– | – | > 30 | ~50 | ≥ 7 | 160 | 38SB30 murine anti-CD38 monoclonal antibody (antibody, V domains shown, Murine hybridoma antibody; also called hybridoma PTA-7666) VH: QVQLQQSGPELVRPGASVKISCKTSGYAFSGSWMNWVKQRPGQGLEWIGRIYPGDGDIIYNGNFRDKVTLSADKSSNTAYMQLSSLTSVDSAVYFCSRWGTFTPSFDYWGQGTTLTVSS VL: DIVMTQSHKFLSTSVGDRVSITCKASQDVVTAVAWFQQKPGQSPKLLIYSASHRYTGVPDRFTGSGSGTDFTFTIISVQAEDLAVYYCQQHYTTPTTFGGGTKLDFRR | – | –
1.2 | 10 | – | – | – | – | ch38SB31 chimeric anti-CD38 antibody (antibody, V domains shown, also called chimeric 38SB31) VH: DVKLVESGGGLVKPGGSLKLSCEASGFTFSSYTLSWVRQTPETRLEWVATISIGGRYTYYPDSVEGRFTISRDNAKNTLYLQMNSLKSEDTAMYYCTRDFNGYSDFWGQGTTLTVSS VL: DTVMTQSHKFISTSVGDRVSITCKASQVVGSAVAWYQQKPGQSPKLLIYWASTRHTGVPDRFTGSGSGTDFTLTISNVQSEDLADYFCQQYNSYPYTFGGGTKLEIKR | 53 | ADCC EC50, LP-1 multiple myeloma cells (human CD38 on cells [1]): 0.24 ng/mL; CDC EC50, LP-1 multiple myeloma cells (human CD38 on cells [1]): 43 ng/mL; Kd (human CD38 on cells [4]): 120 pM

Continued, binder first:

Binder | ADCC EC50, Ramos target cells, human NK effector cells, LDH release (human CD38 on cells [1]) [ng/mL] | CDC EC50, Raji-IMG cells, human complement 5% (human CD38 on cells [1]) [ng/mL] | apoptosis, Annexin V-positive Daudi cells after 24 h with 10 nM antibody (human CD38 on cells [1]) [%] | apoptosis, Annexin V-positive MOLP-8 cells (human CD38 on cells [1]) [%] | apoptosis, Annexin V-positive Ramos cells after subtraction of the non-treated control (human CD38 on cells [1]) [%] | Kd (human CD38 on cells [2]) [pM] | CDC, specific viability of Daudi cells at 1.25 µg/mL or higher with complement (human CD38 on cells [1]) [%] | further results
ch38SB39 chimeric anti-CD38 antibody (antibody, V domains shown) VH: NVQLVESGGGLVQPGGSRKLSCAASGFTFSNFGMHWVRQAPEKGLEWVAYIRSGSGTIYYSDTVKGRFTISRDNPKNTLFLQMTSLRSEDTAMYYCARSYYDFGAWFAYWGQGTLVTVSA VL: DIVMTQSQKFMSTSVGDRVSVTCKASQNVGTNVAWYQHKPGQSPKIMIYSASSRYSGVPDRFTGSGSGTLFTLTINNVQSEDLAEYFCQQYNSYPLTFGSGTKLEIKR | 113 | 400 | – | – | – | – | 91 | –
ch38SB13 chimeric anti-CD38 antibody (antibody, V domains shown) VH: QIQLVQSGPELKKPGETVKISCKASGYTLTSYGMNWVKQAPGKGLKWMGWINTYTGEPTYADDFKGRFAFSLETSASTAFLQINNLKNEDTATYFCVRRGFAYWGQGTLVTVSA VL: NIVLTQSPASLAVSLGQRATISCRASESVEIYGNGFMNWFQQKPGQPPKLLIYRASNLESGIPARFSGSGSRTEFTLTIDPVEADDVATYYCQQINEDPFTFGSGTKLEIKR | 1.3 | 5 | – | – | – | – | 65 | –
38SB13 murine anti-CD38 monoclonal antibody (antibody, V domains shown, Murine hybridoma antibody purified by Protein A or G; also called hybridoma PTA-7667) VH: QIQLVQSGPELKKPGETVKISCKASGYTLTSYGMNWVKQAPGKGLKWMGWINTYTGEPTYADDFKGRFAFSLETSASTAFLQINNLKNEDTATYFCVRRGFAYWGQGTLVTVSA VL: NIVLTQSPASLAVSLGQRATISCRASESVEIYGNGFMNWFQQKPGQPPKLLIYRASNLESGIPARFSGSGSRTEFTLTIDPVEADDVATYYCQQINEDPFTFGSGTKLEIKR | – | – | > 30 | ~50 | ≥ 7 | 100 | – | –
ch38SB18 chimeric anti-CD38 antibody (antibody, V domains shown) VH: QIQLVQSGPELKKPGETVKISCKASGYTFTNSGMNWVKQAPGKGLKWMGWINTYTGEPTYADDFKGRFAFSLETSASSAYLQISNLKNEDTATYFCARRGFVYWGQGTLVTVSA VL: DIVLTQSPASLAVSLGQRATISCRASESVAIYGNSFLKWFQQKPGQPPKLLIYRASNLESGIPARFSGSGSGTDFTLTINPVEADDVATYYCQQINEDPYTFGGGTKLEIKR | 1.3 | 10.1 | – | – | – | – | 85 | ADCC EC50, LP-1 multiple myeloma cells (human CD38 on cells [1]): 0.56 ng/mL; CDC EC50, LP-1 multiple myeloma cells (human CD38 on cells [1]): 32 ng/mL
38SB19 murine anti-CD38 monoclonal antibody (antibody, V domains shown, also called mu38SB19; murine 38SB19) VH: QVQLQQSGAELARPGTSVKLSCKASGYTFTDYWMQWVKQRPGQGLEWIGTIYPGDGDTGYAQKFKGKATLTADKSSKTVYMHLSSLASEDSAVYYCARGDYYGSNSLDYWGQGTSVTVSS VL: DIVMAQSHKFMSTSVGDRVSITCKASQDVSTVVAWYQQKPGQSPKRLIYSASYRYIGVPDRFTGSGSGTDFTFTISSVQAEDLAVYYCQQHYSPPYTFGGGTKLEIKR | – | – | > 30 | ~50 | ≥ 7 | 120 | – | –
ch38SB30 chimeric anti-CD38 antibody (antibody, V domains shown) VH: QVQLQQSGPELVRPGASVKISCKTSGYAFSGSWMNWVKQRPGQGLEWIGRIYPGDGDIIYNGNFRDKVTLSADKSSNTAYMQLSSLTSVDSAVYFCSRWGTFTPSFDYWGQGTTLTVSS VL: DIVMTQSHKFLSTSVGDRVSITCKASQDVVTAVAWFQQKPGQSPKLLIYSASHRYTGVPDRFTGSGSGTDFTFTIISVQAEDLAVYYCQQHYTTPTTFGGGTKLDFRR | 2.2 | 20 | – | – | – | – | 45 | –
hu38SB31 v1.2 humanized anti-CD38 antibody (antibody, V domains shown) VH: EVQLVESGGGLVKPGGSLRLSCEASGFTFSSYTLSWVRQTPGKGLEWVATISIGGRYTYYPDSVKGRFTISRDNAKNTLYLQMNSLKSEDTAMYYCTRDFNGYSDFWGQGTTLTVSS VL: DTVMTQSPSSISTSIGDRVSITCKASQVVGSAVAWYQQKPGQSPKLLIYWASTRHTGVPARFTGSGSGTDFTLTISNVQSEDLADYFCQQYNSYPYTFGGGTKLEIKR | – | – | – | – | – | – | – | Kd (human CD38 on cells [4]): 110 pM
38SB31 murine anti-CD38 monoclonal antibody (antibody, V domains shown, Murine hybridoma antibody; also called hybridoma PTA-7668) VH: DVKLVESGGGLVKPGGSLKLSCEASGFTFSSYTLSWVRQTPETRLEWVATISIGGRYTYYPDSVEGRFTISRDNAKNTLYLQMNSLKSEDTAMYYCTRDFNGYSDFWGQGTTLTVSS VL: DTVMTQSHKFISTSVGDRVSITCKASQVVGSAVAWYQQKPGQSPKLLIYWASTRHTGVPDRFTGSGSGTDFTLTISNVQSEDLADYFCQQYNSYPYTFGGGTKLEIKR | – | – | > 30 | ~50 | ≥ 7 | 110 | – | –
hu38SB31 v1.1 humanized anti-CD38 antibody (antibody, V domains shown) VH: EVQLVESGGGLVKPGGSLRLSCEASGFTFSSYTLSWVRQTPGKGLEWVATISIGGRYTYYPDSVKGRFTISRDNAKNTLYLQMNSLKSEDTAMYYCTRDFNGYSDFWGQGTTLTVSS VL: DTVMTQSPSTISTSVGDRVSITCKASQVVGSAVAWYQQKPGQSPKLLIYWASTRHTGVPDRFTGSGSGTDFTLTISNVQSDDLADYFCQQYNSYPYTFGGGTKLEIKR | – | – | – | – | – | – | – | Kd (human CD38 on cells [4]): 130 pM

— patent US20110262454A1 (published 2011)
